Results as given in PMC11731035.

Biological target: plastidic 70S ribosomes of Arabidopsis thaliana (Arabidopsis thaliana (endogenous))
Experiment: co-sedimentation; lysate of Col-0 plants grown at 21 °C layered on a 25% sucrose cushion, 173,292 x g for 20 min; immunoblot of total, supernatant and ribosomal pellet, quantified as R/(R+S); standard ribosome buffer (Mg2+), also with 800 mM KCl (high salt) or 1 mM puromycin

With “Trigger factor 2 (Tig2), Arabidopsis thaliana chloroplast (natural protein)” the fraction co-sedimented with ribosomes was 25%.
“Trigger factor 1 (Tig1), Arabidopsis thaliana chloroplast (natural protein)” was tested, and the fraction co-sedimented with ribosomes was 8%.
